Results taken from the supplement of paper PMC9170038.

System: MS2 coat protein
Assay: apparent KD of MS2 coat protein; designed switch direction (-1 OFF switch, 1 ON switch): -1; higher = weaker reporter binding
Procedure, shortened: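 Three titration conditions were used: no input, 200 uM small-molecule ligand, and an oligonucleotide input. In each, SNAP-549-labelled MS2 coat protein was raised from 0.7 or 1.5 nM, doubling, to 3 µM over designed RNA switches transcribed on Illumina chips by stalled E. coli RNA polymerase. Curve fits of normalised cluster fluorescence gave values whose per-design median over clusters is the apparent KD.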

[1] = input ligand: microRNA oligo, concentration not stated
[2] = Eterna round: R95, input ligand: FMN 200 uM
[3] = Eterna round: R95, input ligand: microRNA oligo, concentration not stated
[4] = Eterna round: R95, input ligand: none

Row | Sequence | apparent KD of MS2 coat protein (input ligand: FMN 200 uM) [nM] | apparent KD of MS2 coat protein (input ligand: none) [nM] | apparent KD of MS2 coat protein [3] [nM] | further results
1 | UUCACAUGGACAUGAGAUCACAUGAGGAUCACCCAUGUGAAUAACAAGCUUUUUGUUCGUCUUAUGUCCAAUAAUAA [Stov1/14-D1] (Eterna round: R97, puzzle: Sensor, turn-off variant 1) | 14.1 | 13.1 | – | –
2 | AGCUGUGGCCGAGGAUAUCACGAACCAUGGAAAACCAUGGAACUCCUACAUGAGGAUCACCCAUGUGAGAAGGCGGUCUCAGCA [Eli eng2 - 020] (Eterna round: R96, puzzle: Exclusion NG 2) | 109 | 52.1 | – | apparent KD of MS2 coat protein [1]: 33.4 nM
3 | GGAAGUAGAAACCGAUCCUACAUGAGGAUCACCCAUGUAGCAAGACGUGCACGCGAAGCUCGUCAGACUACCAGAAA [salish99_TOv1_r3_009] (puzzle: Sensor v3, turn-off variant 1) | – | – | 286 | apparent KD of MS2 coat protein [2]: 301 nM; apparent KD of MS2 coat protein [4]: 293 nM
4 | AGAUAGUCAGGAUAUUAGUAAUAAAAGGAUAAUAAUAUUACUGAGAAGGGACAUGAGGAUCACCCAUGUAAUAU [JR_Ex4_Sub061] (Eterna round: R97, puzzle: Exclusion 4) | 44.5 | 27.5 | – | –
5 | GUCACAUGGACAUAGGAUCACAUGAGGAUCACCCAUGUGACUAACAAGCUUUUUGCUCGUCUUAUGUCCAUGUGAAA [Stov1/15-A2] (Eterna round: R97, puzzle: Sensor, turn-off variant 1) | 14.1 | 13.2 | – | –
6 | GUCAGACGAGGAUAUAGAUUUAGAUACAUGAGGAUCACCCAUGUAUACAUGUAUUUAGAUUUAGAAGGCGUCUGAC [E5/14-A4] (Eterna round: R97, puzzle: Exclusion 5) | 492 | 1360 | – | –
7 | CUUAAUUGUCACAUGGGUGACAUGAGGAUCACCCAUGUCACAAGCUUUUUGCUCGUCUUAUAAUUAACCCAUGUGAC [Stov1/12-A3] (Eterna round: R97, puzzle: Sensor, turn-off variant 1) | 13.7 | 13.3 | – | –
8 | GCUCGUACGGAGGAUAUAGAUUUCGGAAACCGACUAGAAGGCCGAACAUGAGGAUCACCCAUGUGAUUUAUAUC [Gesozarequ] (puzzle: Exclusion 6) | – | – | 18.9 | apparent KD of MS2 coat protein [2]: 23.2 nM; apparent KD of MS2 coat protein [4]: 23.4 nM
9 | GCAUGCUAUGUCAGGAUAUACCUGUGGAUACAUAGGUAGAAGGGACAUGAGGAUCACCCAUGUCCUAAUCAUGC [Fiskers BMX 4 - 24] (puzzle: Brourd's mod of Exclusion 4) | – | – | 12.1 | –
10 | GUAAAGUGAGGAUAUGGUGAGUAGUGCCUGAGCGCUGCUCACCAGAAGGCACAUGAGGAUCACCCAUGUAUAGC [Mat - Exclusion 4 - Mod of JL - D17] (puzzle: Exclusion 4) | – | – | 14 | –
11 | CAGUACUGAGGAUAUACAUGAGGAUCACCCAUGUGUUCCGGCUAGGAUACUAGCAAAGGAAGAAGGCAGUACUG [Mat - Exclusion 3 - Eli Mod - D23] (Eterna round: R97, puzzle: Exclusion 3) | 22.7 | 17.1 | – | –
12 | AUACAACAUGAGGAUCACCCAUGUGAGGAUAUGCGAUAUAUCAUCAUCAUAAUCAUAAGCAGAAGGCACAACAU [Another One] (puzzle: Exclusion 1) | – | – | 35.6 | apparent KD of MS2 coat protein [2]: 35.7 nM; apparent KD of MS2 coat protein [4]: 34 nM
13 | GAGACAGAAGGAUAUACGUCCGCGAGUGCGAUGCGCUUGGGACAUGAGGAUCACCCAUGUAGAAGGUCUAACCC [Eternabot (L1) Solution 89] (Eterna round: R97, puzzle: Exclusion 2) | 318 | 251 | – | –
14 | AGGUCUCGUGUCAGGAUAUAUUUUCUCUGAGCAAGGUAGAAGGGACAUGAGGAUCACCCAUGUCUGAGGAAAAU [Eternabot (L1) Solution 34] (Eterna round: R97, puzzle: Brourd's mod of Exclusion 4) | 24 | 19.1 | – | –
15 | GGUUGACAUGAGGAUCACCCAUGUGAGGAUAUGCGAGAGAAAAAAGUGAGGAAGGAAUGCAGAAGGCGCUGUCG [salish99-ex1_r3_018] (puzzle: Exclusion 1) | – | – | 54.3 | apparent KD of MS2 coat protein [2]: 43.3 nM; apparent KD of MS2 coat protein [4]: 57.7 nM
16 | GCAGCAACUCUUACUAACUAAACAUGAGGAUCACCCAUGUCUCAGGAUAUGGUCUGGAUUACAGGCCAGAAGGGAGAAAGCUGC [Eli exng3 - 038] (Eterna round: R96, puzzle: Exclusion NG 3) | 15.6 | 16.9 | – | apparent KD of MS2 coat protein [1]: 11.2 nM

Row | Sequence | apparent KD of MS2 coat protein (input ligand: FMN 200 uM) [nM] | apparent KD of MS2 coat protein (input ligand: none) [nM] | apparent KD of MS2 coat protein [3] [nM] | further results
17 | UUAUUACGAGGAUAUCGUUUUUAUCACAUGAGGAUCACCCAUGUUGUUUAUGUUUCGUUUCGAGAAGGCGUUUGUU [JR_E5_Sub066] (puzzle: Exclusion 5) | – | – | 24.4 | –
18 | AGCUGUGGCCGAGGAUAUCUGAACUCAAUAACCGAAAUAUAAUCGGACAUGAGGAUCACCCAUGUAGAGAAGGCGGUCUCAGCA [Eli eng2 - 080] (Eterna round: R96, puzzle: Exclusion NG 2) | – | – | – | apparent KD of MS2 coat protein [1]: 24.2 nM
19 | CCCAGUUAUUGAGGAUAUCCUACAUGAGGAUCACCCAUGUAAUAAAUGAGGAUUUCGGGUGUCUAGGAGAAGGCAAGGAUAGGC [Ostracism 22 - Jieux - Exclusion NG 2] (Eterna round: R96, puzzle: Exclusion NG 2) | 63.7 | 50.5 | – | apparent KD of MS2 coat protein [1]: 39.8 nM
20 | CAGGUUAGAGGAUAUACGUAGGUACAGAUCUGUGUGUUUCUACAUGAGGAUCACCCAUGUAGAAGGCUAUCCUG [LRO-Excl2-10] (puzzle: Exclusion 2) | – | – | 25.3 | –
21 | AAAUCGAGACGGAGAUCCGACAUGAGGAUCACCCAUGUCUCGUAAGCUUUUUGCUCGUCUUAUACUCCUCUGUUCUC [Elimod 50 - Jieux - Sensor, turn-off variant 1] (Eterna round: R97, puzzle: Sensor, turn-off variant 1) | 22.5 | 22.4 | – | –
22 | UAACUGUGAGGAUAUUCGUAGUACACGGAGACGUGUAUUACGGAGAAGGCACAUGAGGAUCACCCAUGUUCCUU [Default title] (Eterna round: R97, puzzle: Exclusion 4) | 75.6 | 17.4 | – | –
23 | GCCAGAGCAGGAUAUUCAAUAUCACACAUGAGGAUCACCCAUGUCCGGCGAAAGCUGGAGGGAGAAGGGCUCUGGC [Fiskers Ex 5 - 14] (puzzle: Exclusion 5) | – | – | 49.4 | –
24 | UUCACGUCAGGAUAUCCAAAGUUCCGAAAUAACGGUACUUUGGAGAAGGGACAUGAGGAUCACCCAUGUCCUCG [LRO-Excl4-17-Nando 22 Mod] (Eterna round: R97, puzzle: Exclusion 4) | 40.3 | 22 | – | –
25 | AGUUGGCGAGGAUAUACAUGAGGAUCACCCAUGUGAGAGAUACUAGUGAGGUCGAUUAGUAGAAGGCGCUGACA [Mat - Exclusion 3 - Mod of JL D77] (puzzle: Exclusion 3) | – | – | 31.6 | –
26 | CUUUUGUGAGGAUAUCAGUAGUAAAUAAAUUAAAUUACUACUGAGAAGGCACAUGAGGAUCACCCAUGUUCCUC [salish99_ex3_r3_081] (puzzle: Exclusion 4) | – | – | 39.3 | –
27 | GCGAUGUGAGGAUAUACAAGGUGUGAGAGUGCUUGAACGUAACAUGAGGAUCACCCAUGUAGAAGGUAUGUGAU [Eternabot (L1) Solution 29] (Eterna round: R97, puzzle: Exclusion 2) | 109 | 181 | – | –
28 | AGUACUAACACGAAAGUGUUAGUACAAUAAGCUUGUGAAACAUGAGGAUCACCCAUGUCCUCCUAAGCUCGUCUUAU [salish99_TOv2_r3_049] (puzzle: Sensor v3, turn-off variant 2) | – | – | 140 | apparent KD of MS2 coat protein [2]: 45.4 nM; apparent KD of MS2 coat protein [4]: 43.2 nM
29 | GGAAAAUGAGGAUAUACAUGUUUGAUACCUCUACGCCCGCAACAUGAGGAUCACCCAUGUAGAAGGCAUGAAAA [Marius] (puzzle: Exclusion 2) | – | – | 13.9 | –
30 | UGAGGACAUGAGGAUCACCCAUGUAAGGAUAUGCGGAGAGUUUGGAGAGGUUGAGGAGGCAGAAGGUACAGGAU [JR_Exclu1_Sub047] (puzzle: Exclusion 1) | – | – | 49.2 | –
31 | UGUUGUUCCGAAGGAUAUGUAUGAGGAUCACCCAUAAGAGUUGAUGUACCAUGAGGAUCACCCAUGUAGAAGGUCGGGUUAACU [pwkr exNG2 2xF5 1xFMN.20] (Eterna round: R96, puzzle: Exclusion NG 2) | 200 | 101 | – | apparent KD of MS2 coat protein [1]: 52.6 nM
32 | GAAAAGGUAGGAUAUACGAAAAAAAAGGGUUGAAAAAAAACACAUGAGGAUCACCCAUGUAGAAGGACCAAAAG [salish99_ex2_r3_080] (puzzle: Exclusion 2) | – | – | 19.7 | apparent KD of MS2 coat protein [2]: 140 nM; apparent KD of MS2 coat protein [4]: 26 nM
